Results on 4 molecules are retold here after PMC5788269, “Architecture of eukaryotic mRNA 3′-end processing machinery” (Science (New York, N.y.), 2017).

First the molecules themselves.
B1: Pfs2 (recombinant, polymerase module) (natural protein, yeast)
chain: MDGHNQNQYQNQNQIQQSQQPPLKKYVTQRRSVDVSSPYINLYYNRRHGLPNLVVEPETSYTIDIMPPNAYRGRDRVINLPSKFTHLSSNKVKHVIPAIQWTPEGRRLVVATYSGEFSLWNASSFTFETLMQAHDSAVTTMKYSHDSDWMISGDADGMIKIWQPNFSMVKEIDAAHTESIRDMAFSSNDSKFVTCSDDNILKIWNFSNGKQERVLSGHHWDVKSCDWHPEMGLIASASKDNLVKLWDPRSGNCISSILKFKHTVLKTRFQPTKGNLLMAISKDKSCRVFDIRYSMKELMCVRDETDYMTLEWHPINESMFTLACYDGSLKHFDLLQNLNEPILTIPYAHDKCITSLSYNPVGHIFATAAKDRTIRFWTRARPIDPNAYDDPTYNNKKINGWFFGINNDINAVREKSEFGAAPPPPATLEPHALPNMNGFINKKPRQEIPGIDSNIKSSTLPGLSI
notes: Pfs2, yeast; ordered in the cryo-EM map: residues 27 to 411; source: overexpressed in insect cells, purified as part of the polymerase module
B2: Fip1 (recombinant, polymerase module) (natural protein, yeast, UniProt P45976 1-327, looked up)
chain: MSSSEDEDDKFLYGSDSELALPSSKRSRDDEADAGASSNPDIVKRQKFDSPVEETPATARDDRSDEDIYSDSSDDDSDSDLEVIISLGPDPTRLDAKLLDSYSTAATSSSKDVISVATDVSNTITKTSDERLITEGEANQGVTATTVKATESDGNVPKAMTGSIDLDKEGIFDSVGITTIDPEVLKEKPWRQPGANLSDYFNYGFNEFTWMEYLHRQEKLQQDYNPRRILMGLLSLQQQGKLNSANDTDSNLGNIIDNNNNVNNANMSNLNSNMGNSMSGTPNPPAPPMHPSFPPLPMFGSFPPFPMPGMMPPMNQQPNQNQNQNSK
notes: Fip1, yeast; present in the four-subunit complex but not visible in the cryo-EM map; source: overexpressed in insect cells, purified as part of the polymerase module
B3: Pap1 (recombinant, polymerase module) (enzyme, yeast, UniProt P29468 1-568, looked up)
chain: MSSQKVFGITGPVSTVGATAAENKLNDSLIQELKKEGSFETEQETANRVQVLKILQELAQRFVYEVSKKKNMSDGMARDAGGKIFTYGSYRLGVHGPGSDIDTLVVVPKHVTREDFFTVFDSLLRERKELDEIAPVPDAFVPIIKIKFSGISIDLICARLDQPQVPLSLTLSDKNLLRNLDEKDLRALNGTRVTDEILELVPKPNVFRIALRAIKLWAQRRAVYANIFGFPGGVAWAMLVARICQLYPNACSAVILNRFFIILSEWNWPQPVILKPIEDGPLQVRVWNPKIYAQDRSHRMPVITPAYPSMCATHNITESTKKVILQEFVRGVQITNDIFSNKKSWANLFEKNDFFFRYKFYLEITAYTRGSDEQHLKWSGLVESKVRLLVMKLEVLAGIKIAHPFTKPFESSYCCPTEDDYEMIQDKYGSHKTETALNALKLVTDENKEEESIKDAPKAYLSTMYIGLDFNIENKKEKVDIHIPCTEFVNLCRSFNEDYGDHKVFNLALRFVKGYDLPDEVFDENEKRPSKKSKRKNLDARHETVKRSKSDAASGDNINGTTAAVDVN
notes: Pap1 poly(A) polymerase, yeast; source: overexpressed in insect cells, purified as part of the polymerase module

Details in all cases: both partners purified
For assay [1], the target named is B3. As to the kind of experiment: cross-linking; cross-linking mass spectrometry of the polymerase module, to determine where Pap1 and Fip1 bind.
Assay [2] concerns the target T1, Cft1 (recombinant, polymerase module) (yeast, UniProt Q06632 1-1357).
T1 construct: Cft1, yeast; ordered in the cryo-EM map: residues 1 to 1357 (several loops not visible); source: overexpressed in insect cells, purified as part of the polymerase module
T1 sequence: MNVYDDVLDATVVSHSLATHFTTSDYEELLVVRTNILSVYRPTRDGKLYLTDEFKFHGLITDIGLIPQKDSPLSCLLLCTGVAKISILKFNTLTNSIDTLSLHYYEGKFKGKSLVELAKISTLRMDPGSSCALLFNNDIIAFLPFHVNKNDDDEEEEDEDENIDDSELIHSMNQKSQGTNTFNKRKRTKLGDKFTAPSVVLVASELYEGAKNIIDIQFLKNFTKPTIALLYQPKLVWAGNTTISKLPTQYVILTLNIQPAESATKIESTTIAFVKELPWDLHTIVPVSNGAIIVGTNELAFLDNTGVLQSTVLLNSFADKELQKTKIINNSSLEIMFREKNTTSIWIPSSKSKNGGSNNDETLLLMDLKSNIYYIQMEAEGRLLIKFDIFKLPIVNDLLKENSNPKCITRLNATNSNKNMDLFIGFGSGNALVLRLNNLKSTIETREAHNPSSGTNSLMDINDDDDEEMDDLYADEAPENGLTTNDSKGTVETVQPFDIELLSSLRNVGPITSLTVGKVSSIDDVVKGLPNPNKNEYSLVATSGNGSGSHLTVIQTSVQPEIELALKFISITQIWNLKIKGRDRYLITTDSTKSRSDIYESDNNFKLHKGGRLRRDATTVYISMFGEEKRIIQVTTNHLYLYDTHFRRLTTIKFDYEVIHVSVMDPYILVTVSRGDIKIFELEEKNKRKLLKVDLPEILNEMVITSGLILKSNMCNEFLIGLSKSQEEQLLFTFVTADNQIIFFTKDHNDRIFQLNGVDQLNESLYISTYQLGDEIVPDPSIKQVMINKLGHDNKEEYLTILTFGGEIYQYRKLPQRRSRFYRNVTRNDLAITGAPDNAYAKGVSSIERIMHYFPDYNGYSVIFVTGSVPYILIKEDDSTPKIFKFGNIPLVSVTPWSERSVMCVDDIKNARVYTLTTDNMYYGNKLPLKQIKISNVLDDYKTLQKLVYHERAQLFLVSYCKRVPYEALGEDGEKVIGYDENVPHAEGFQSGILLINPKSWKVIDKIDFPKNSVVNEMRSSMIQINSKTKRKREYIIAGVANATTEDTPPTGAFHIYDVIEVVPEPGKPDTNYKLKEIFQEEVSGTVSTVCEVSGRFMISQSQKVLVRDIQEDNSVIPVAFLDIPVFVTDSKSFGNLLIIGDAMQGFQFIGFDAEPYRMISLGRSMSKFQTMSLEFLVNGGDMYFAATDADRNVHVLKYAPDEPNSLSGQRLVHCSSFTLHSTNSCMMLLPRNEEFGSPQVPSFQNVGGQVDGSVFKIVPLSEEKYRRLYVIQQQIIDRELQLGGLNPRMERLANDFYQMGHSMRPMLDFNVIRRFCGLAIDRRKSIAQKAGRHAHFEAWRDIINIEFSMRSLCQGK
The experiment in a line: cryo-EM structure; recombinant four-subunit complex (Cft1, Pfs2, Yth1, Fip1) overexpressed in insect cells; overall resolution 3.5 Å.

Assay [3] has as its target T1, Cft1 (recombinant, polymerase module). As to the kind of experiment: cross-linking; cross-linking mass spectrometry of the polymerase module, to determine where Pap1 and Fip1 bind.
For assay [4], the target named is B2. Described as above.
The target of assay [5] is B1. As to the kind of experiment: cryo-EM structure; recombinant four-subunit complex (Cft1, Pfs2, Yth1, Fip1) overexpressed in insect cells; overall resolution 3.5 Å.

With B1, the binding result in assay [1] and in assay [2] was “binds” in each case.

In the case of B2, the binding result in assay [1] is given as “binds”.

With B3, the binding result in assay [3] is reported as “binds”.

B4: Yth1 (recombinant, polymerase module) (natural protein, yeast)
chain: SLIHPDTAKYPFKFEPFLRQEYSFSLDPDRPICEFYNSREGPKSCPRGPLCPKKHVLPIFQNKIVCRHWLRGLCKKNDQCEYLHEYNLRKMPECVFFSKNGYCTQSPDCQYLHIDPASKIPKCENYEMGFCPLGSSCPRRHIKKVFCQRYMTGFCPLGKDECDMEHPQFIIPDEGSKLRIKRDDEINTRKMDEEKERRLNAIINGEV
notes: Yth1, yeast; ordered in the cryo-EM map: residues 1 to 94; zinc fingers 3 to 5 (residues 95 to 208) not visible; source: overexpressed in insect cells, purified as part of the polymerase module
On to B4, for which the binding result in assay [4], in assay [1], in assay [2] and in assay [5] was “binds” in each case.
